According to US20250034594A1, “RNA-GUIDED GENOME RECOMBINEERING AT KILOBASE SCALE” (THE BOARD OF TRUSTEES OF THE LELAND STANFORD JUNIOR …, priority 2021, published 2025):

B1: SSAP_19: SEQ ID NO: 188 (protein)
chain: NTPTMKRKFEEVLHENANAFMSNVMTLVSNDSYLAESEPMSILSGALTAATLNLGLDKNLGYAYLVPFNTKNKQTGKWERKAQFILGYKGYIQLAQRSGKYKALNVIEVYEGELLSWNRLTEEFEFDPNGRQSDDVIGYVGYFELLNGFKKTVYWTKQEIEAHRIANSKDKEKTKLSGVWATDYNAMARKTVLRNMLSKWGILSIEMQEATTSDEKVQQMQEDGNIISETEVEENTTMKTAEVINEADSDSLNQTDLFDTKNPPLE
B2: SSAP_143: SEQ ID NO: 312; Staphylococcus chromogenes (protein)
chain: ANAKEFKKQMNSKNEVAETNNAPQKAKGPRQQVSDLLDRMAPEIQKALPNNMSAERMARIAMTAVSSNPKLLECDPKSFIGALMQASQIGLEPNTALGQAYLIPYGNQVQLQLSYLGLIELATRTGQYKAIYAHEVYKDDEFSYEYGLYKNLIHKPVDDPNGEPIGYYAVYHLMNGGYDFAYWTRKKVEAHAQQYSKAVQQGWNSPWKSDFNAMAKKTVLKDLLKYAPKAIEVSQAIGSDSKVSEINDEGEIIDVTDYSQEEEK
modifications: Staphylococcus chromogenes
B3: SSAP_302: SEQ ID NO: 471; Clostridium saccharobutylicum (protein, listed as Clostridium saccharobutylicum)
chain: ATNSSLKNQLIEKEQTTVNVQETMFKNLINSDDVKSKFTEVLKDKAIQYINSIINLVNSDKDLIECEPKSIIDACMSAVSLDLSVDKNLEYVEIIPYKKKANFQLGYRGYIQLLLRTGEYKSVNIIEVYEGQLKSWNQLAEEFDIDFTYKKSDAVIGYAGYFEMLNGFRKSVYWSKENMDALRENSFKSDTRWNNDYKAMAKRAVIRNMISKWGSLSIEMEKAYCEDLNTDKFVNGN
B4: SSAP_153: SEQ ID NO: 322; Staphylococcus intermedius (protein, listed as Staphylococcus intermedius)
chain: ANANSFKEQVSKNEVQETNNEKPKGPRQQVSDLLERMAPEIQKALPSHMSAERMARIAMTAISSNPQLLECNPRSLIGALLQASQIGLEPNTALGQAYLIPYYNHKKKEFEAQLQLSYLGLIELATRTGQYKAIYAHEVYKEDEFYYEYGLHKNLVHKPVDDPNGEPVGYYAVYHLQNGGFDFAYWTKNKIELHAGNYSKAVQKGWNSPWKTDFNAMAKKTVLKDLLKYAPKSIEISQAVGSDSKVTEINKQGEIIDITEYGQEALEG
B5: SSAP_75: SEQ ID NO: 244 (protein)
chain: ANELGIFSVDNLNMTTIKQYLDGGGKASDAELVLLINLCKQNNMNPFMKEVYFIKYGNQPAQIVVSRDFYRKRAFQNPNFAGIEVGVIVLNKDGVLEHNEGTFKTHEQELVGAWARVHLKNTEIPVYVAVSYDEYVQMKDGHPNKMWTNKPCTMLGKVAESQALRMAFPAEFSGTYGEEELPEPEKEPREVNGVKEPDRAQIESFDKEDYAAKKIEELKEKAQPQKEVVKETGEVIDKITAEDF
B6: SSAP_223: SEQ ID NO: 392; Haloactinospora alba (protein, listed as Haloactinospora alba)
chain: GQSVTNAVAQRDTSPSGMVGKYRDDFAQVMPSHVNGAGWVRIAQGILRRDAKLAEAARNAPQSLMSALMDAAQQGLTPGTTEFYLVPRKRKGSLEVQGITGYQGEIELIYRAGAVASVVAEIVHEHDTFEWIPGKHERPIHEADWFGNRGTMVGAYAYAVMNSGSTSKVVILNQHDIEKARAMSDGADSSYSPWQKWPESMWLKTAAHRLAKWVPTSAEYRHEQERARARSEDTEIPASPDSDVVHAEIVEENDDEQAT
B7: SSAP_111: SEQ ID NO: 280; Siminovitchia fordii (protein, listed as Siminovitchia fordii)
chain: ATNQDIKNQLANKANGNKPASPANTIAAYLKKMGPEIEKALPKHMDADRLARIALTTIRTTPKLLECNISSLMGAVMQSAQLGLEPGLIGHCYIIPYGKEATFIIGYKGMIDLARRSGQIQNIYAHAVFENDEFDYALGLHPKLEHKPAGSNRGEIIGAYAVAHFKDGGYQFEYMAKEDIEKRKSRSAAARSKHSPWATDYEEMAKKTVIRHMWKYLPISVEIQQQAIQDEVVRKDVTSEPEFIDMEDMPEVEEGQSEESEQVEAPFD
B8: SSAP_92: SEQ ID NO: 261; Edwardsiella piscicida (protein, listed as Edwardsiella piscicida)
chain: TNNQQPPIATADLQKAQSQAPAVKPDQKLINFINQPSMKGQIAAALPRHMAPDRMIRIITTEIRKTPALATCDMQSFIGSVVQCSQLGLEPGGALGHAYLLPFGNGKAKSGQSNVQLIIGYRGMIDLARRSGQIVSISARTVRDGDQFHYEYGLDETLKHVPGDNESSPITHVYAVAKLKDGGVQFEVMTFNQIEKVRGQSKAGNNGPWQTHWEEMAKKTVIRRLFKYLPVSIEMQKAVILDEKAEANIDQENASVISAEFSVVED
B9: SSAP_117: SEQ ID NO: 286; Enterocloster bolteae (protein, listed as Enterocloster bolteae)
chain: GVNVKHELEQRAAGQGASVRLTKNMTIVDMVKALEPEIRRALPAVLTPERFTRMALSSINNTPELAECTPMSFIAALLNAAQLGLEPNTPLGQAYLIPYKNKGKLECQFQLGYKGLIDLAYRTGQVQIIQAQVVREFDSFEYQYGLDSKLVHKPGEGARGEITYVYGLFKLSNGGYGFEVSNKTEMDTFAARYSKSFGSKYSPWTEDYESMAKKTVIKRVLKYAPISSDFQKALSMDETIKTGIAVDMSEIRNECLPEEAGSEAA
B10: SSAP_135: SEQ ID NO: 304; Amycolatopsis arida (protein, listed as Amycolatopsis arida)
chain: HGTALNPERFTRVALTVIRQSADLQRCRPESLLGALMTSAQLGLEPGPLGEAYLVPYGDQVTFIPGYRGLIKLAWQSGQLRHISARVVHEGDRFSYSYGLHPDLIHQPTRGDRGPITDVYAAATLIDGGVEFEVLDVATVETIRARSRAGRKGPWVTDWEAMARKTAIRQLAKWLPMATVMSRAIAAEGTVRTDLDADALDDLTADPGPEVLDADPAWDGPEPPGDQARNQEPTTQGDA
B11: SSAP_308: SEQ ID NO: 477; uncultured organism (protein)
chain: SNELQNIKPEVFGEVEDKLGSLADNNGIDLPENYSARNALKQAYLKLQSKDEPVFDKYKDETIYNALLDTLTQGLNPGKDQVYYIGYGNHLTAQKSYFGNIALAKRMAGVQEVSSNVILEGDEVDISIERGQQVIESHDRNFDSMDGQVKGAYAVISFEDERKDKYEIMTLKELKQAWAQGKSFGGNGKSPHHKFTKEMAKKTVINRALKPLIKASDDSGLIKEKPKLEKLKDGQQERTEGEKIEEVDVDKEEVVEVDYDV
modifications: uncultured organism
B12: SSAP_296: SEQ ID NO: 465; Peptostreptococcaceae bacterium VA2 (protein)
chain: QPFLVQRYPHLDVVLNDQVHVLKSFFFQNHIILYLYKYIECLQIFHKPLLKGDRGKVIGYYAVYHLEPNGYNFVFMTYDEVKNHGKKYSKNFEGGIWEKEFDSMAKKTVIKKLLKYAPLSIEMQKAVTFDESVKGSIDNDMLLVESIEDVEEIQLDTNI
modifications: Peptostreptococcaceae bacterium VA2

tested on: gene editing with dCas9; assay: Screen of 322 new SSAP proteins, gene editing activity with dCas9 (Table 5); format: cell-based; set-up: dCas9 with SSAP activity: scale not given here; details: not given
Summary of the method: (§1)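 Read-out is gene editing activity. Candidates come from sequence data mining, are made synthetically, and are tested alongside either nuclease-active Cas9 or catalytically dead dCas9.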

Point of comparison: B8, “dCas9 with SSAP activity” value −1.516. Against it:
- B1 — higher, −1.396
- B2 — lower, −1.842
- B3 — lower, −1.946
- B4 — lower, −1.534
- B5 — lower, −1.658
- B6 — lower, −1.928
- B7 — higher, −1.417
- B9 — higher, −1.263
- B10 — lower, −1.826
- B11 — higher, −1.277
- B12 — lower, −1.749

same assay, conditions: normalized

Point of comparison: B12, “dCas9 with SSAP activity (normalized)” value −0.598. Against it:
- B1 — higher, −0.389
- B2 — lower, −1.900
- B3 — lower, −0.772
- B4 — higher, −0.179
- B5 — lower, −0.897
- B6 — lower, −0.948
- B7 — higher, −0.419
- B8 — higher, −0.177
- B9 — higher, −0.179
- B10 — lower, −2.544
- B11 — lower, −1.011

tested on: gene editing with Cas9 and dCas9; assay: Screen of 322 new SSAP proteins, activity across all experiments (Cas9 and dCas9, Table 5); format: cell-based; set-up: scale not given here; details: not given
Summary of the method: as §1

Point of comparison: B6, “Activity across all experiments” value −0.846. Against it:
- B1 — lower, −0.847
- B2 — lower, −1.198
- B3 — lower, −1.394
- B4 — lower, −1.867
- B5 — higher, −0.687
- B7 — higher, −0.622
- B8 — higher, 0.412
- B9 — lower, −2.868
- B10 — lower, −1.554
- B11 — lower, −0.985
- B12 — higher, −0.753

tested on: gene editing with Cas9; assay: Screen of 322 new SSAP proteins, gene editing activity with Cas9 (Table 5); format: cell-based; set-up: Cas9 with SSAP activity: scale not given here; details: not given
Summary of the method: as §1

Point of comparison: B2, “Cas9 with SSAP activity” value −0.553. Against it:
- B1 — higher, −0.298
- B3 — lower, −0.842
- B4 — lower, −2.201
- B5 — higher, 0.284
- B6 — higher, 0.236
- B7 — higher, 0.173
- B8 — higher, 2.341
- B9 — lower, −4.474
- B10 — lower, −1.283
- B11 — lower, −0.693
- B12 — higher, 0.244

same assay, conditions: normalized

Point of comparison: B7, “Cas9 with SSAP activity (normalized)” value 0.129. Against it:
- B1 — lower, −0.329
- B2 — lower, −1.314
- B3 — lower, −0.289
- B4 — lower, −0.296
- B5 — higher, 0.225
- B6 — higher, 0.173
- B8 — higher, 2.795
- B9 — lower, −1.192
- B10 — lower, −0.722
- B11 — lower, −1.286
- B12 — higher, 0.617
